Broadly, the EC50 (read off the curve) is the midpoint of the concentration-response curve. A high value points to weaker potency.

For the experiment, the target named is human CEACAM5 on cells (MKN45, BxPC-3, Ls174T, HCT116-huCEACAM5) (human) (UniProt P06731). In words: flow cytometry on BxPC-3 cells (medium, 60,000 receptors/cell).
Sequence of human CEACAM5 on cells (MKN45, BxPC-3, Ls174T, HCT116-huCEACAM5) (human) (P06731 35-685 T210S limits assumed): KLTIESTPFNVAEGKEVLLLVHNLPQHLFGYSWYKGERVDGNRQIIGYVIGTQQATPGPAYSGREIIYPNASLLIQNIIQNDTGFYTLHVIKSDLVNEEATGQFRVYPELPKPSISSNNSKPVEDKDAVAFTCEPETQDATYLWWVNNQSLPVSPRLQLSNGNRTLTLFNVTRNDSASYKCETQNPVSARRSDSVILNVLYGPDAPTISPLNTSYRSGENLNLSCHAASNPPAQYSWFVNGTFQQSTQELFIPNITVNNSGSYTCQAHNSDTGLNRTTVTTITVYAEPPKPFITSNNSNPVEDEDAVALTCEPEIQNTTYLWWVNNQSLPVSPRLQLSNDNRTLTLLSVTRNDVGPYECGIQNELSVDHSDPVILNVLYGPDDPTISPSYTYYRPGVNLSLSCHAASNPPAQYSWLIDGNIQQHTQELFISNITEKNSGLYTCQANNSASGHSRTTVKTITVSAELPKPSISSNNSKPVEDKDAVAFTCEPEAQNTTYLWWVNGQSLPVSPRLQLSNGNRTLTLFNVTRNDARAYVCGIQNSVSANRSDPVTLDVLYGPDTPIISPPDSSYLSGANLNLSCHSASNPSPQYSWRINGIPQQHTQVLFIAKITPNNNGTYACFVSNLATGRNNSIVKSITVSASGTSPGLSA

In turn, mAb Control 3 (antibody) displayed a concentration giving a half-maximal response (EC50 (read off the curve)) of 8 nM.
